The source of these data is patent US20240254184A1 (SALUBRIS BIOTHERAPEUTICS, published 2024).

In the test the target is T1, recombinant mouse CTLA-4 protein (mouse, UniProt P09793 36-162, limits assumed).
T1 construct: also called CTLA-4 protein from mice
The test is described as follows: ELISA, CTLA-4 protein coated on plate, anti-human IgG Fc-peroxidase detection. The method, then: The binding activity of the anti-CTLA-4-IL-15Ra-sushi-IL-15 fusion protein to recombinant CTLA-4 protein which originated from different species, including human, cynomolgus monkey, rat, and mouse, was determined by Enzyme Linked Immunosorbent Assay (ELISA). Briefly, 96-well plates were coated overnight at 4° C. with […] of CTLA-4 protein diluted in PBS. Plates were blocked with 1% bovine serum albumin (BSA) for an hour at room temperature, and then incubated for additional 2 hours with the anti-CTLA-4-IL-15Ra-sushi-IL-15 fusion protein, Ipilimumab, or human IgG1 isotype control, at a 2-fold serial dilution starting from 1 μg/mL. Goat anti-human IgG (Fc specific)-peroxidase antibody (Sigma, 1:5000 dilution) was added to the plates and incubated for 1 hour at room temperature. After washing, the 3, 3′, 5, 5′-Tetramethylbenzidine (TMB) substrate was added to the wells to develop color and the absorbance at 450 nm was measured using the Multiskan plate reader (Thermo). Optical Density 450 (OD450) values were plotted against antibody concentration.

B1: Ipilimumab (antibody, V domains shown)
VH: QVQLVESGGGVVQPGRSLRLSCAASGFTFSSYTMHWVRQAPGKGLEWVTFISYDGNNKYYADSVKGRFTISRDNSKNTLYLQMNSLRAEDTAIYYCARTGWLGPFDYWGQGTLVTVSS
VL: not shown
notes: also called anti CTLA-4 antibody; CTLA-4 antibody
Take B1: the binding result is listed as “no binding”.
